Patent US20090041679A1
Positions count from the first letter of the chain named. Where two headings read alike, the source gives them in different places.

B1: BF1-1 (antibody, V domains shown)
VH: EVQLVQSGPGLVKPSETLSLTCTVSGSSMRTHYWTWIRQPPGKGLEWIGNIYYSGSTDYNPSLKSRVTISVDTSKNQFSLKLSSVTAADTAVYFCARTKHFDILPGGVFDMWGRGTTVTVSS
VL: SYELTQLPSVSVSPGQTATITCSGDRLGDKYACWYQQKPGQSPVLVIFQDTKRPSGIPERFSGSNSGNTATLTISGTQAMDEADYYCQAWDSNIGVFGGGTKLTVL
B2: BF1-10 (antibody, V domains shown)
VH: QVQLQESGPGLVKPSQTLSLTCAVSGGSISSRGYYWSWIRQPPGKGLEWIGYIFYTGGTDYNPSLKSRITISRDTPKNQISLNLSSVTAADTAVYYCARVVDGSSGYHHYYFDYWGQGTLVTVSS
VL: DIQMTQSPASLAVSLGQRATISYRASKSVSTSGYSYMHWNQQKPGQPPRLLIYLVSNLESGVPARFSGSGSGTDFTLNIHPVEEEDAATYYCQHIRELTRSEGGPSWRSN
B3: BF1-19 (antibody, V domains shown)
VH: QVQLQESGPGLVKPSETLSLTCTVSGSSMRTHYWTWIRQPPGKGLEWIGNIYYSGSTDYNPSLKSRVTISVDTSKNQFSLKLSSVTAADTAVYFCARTKHFDILPGGVFDMWGRGTTVSS
VL: B2 VL with Q3V, S106K, R108I

What was measured:
[1] = biological target: purified H5N1 HA (influenza A virus H5N1)
[2] = biological target: purified H5N1 HA (influenza A virus H5N1); remark: listed apart in the source

Row | Binder | Kd [1] | Kd [2]
1 | B1 | 20.3 nM | 
2 | B2 | 10.8 nM | 10 to 50 nM
3 | B3 | 48.2 nM | 10 to 50 nM
